How the values were obtained:
mt tRNA^Trp = assay: Assay of aminoacylation activity using 14C tryptophan; assay type: biochemical, yeast; conditions: 30° C., 0-16 minutes; mtWRS with mt tRNA^Trp; FIG. 11
Experimental: In order to assay enzyme activity, aminoacylation was carried out using ^14C tryptophan. The reaction solution having the composition shown below was heated at 30° C. for about 5 minutes while the enzyme was removed therefrom. Thereafter, the enzyme was added, the mixture was incubated at 30° C., the mixture was spotted on a filter wetted with 5% TCA 0, 1, 4, 9, and 16 minutes after incubation, and the filter was then soaked in 5% TCA. After spotting of the reaction solution at each time point was completed, 5% TCA was discarded, and fresh 5% TCA was added to the beaker, followed by shaking for 10 minutes. This procedure was repeated twice, 100% ethanol was added, and the mixture was lightly shaken, followed by dehydration under an electric heat. Thereafter, the resultant was soaked in a scintillator, and the samples were counted using a liquid scintillation counter.
The reaction solution for aminoacylation (50 μl) was prepared by diluting 10 μl of 5×AAM (aminoacylation mixture), 0.05 A260 units of mt tRNA^Trp, an adequate amount of enzyme (depending on the concentration), and 2 μl of ^14C tryptophan in dH2O.
The 5×AAM (aminoacylation mixture) comprised 500 mM Tris-HCl (pH 7.6), 50 mM MgCl2, 200 mM KCl, and 20 mM ATP.
A scintillator (1 liter) was prepared by diluting 4 g of Dotite DPO and 0.1 g of Dotite POPOP in toluene.

[1] = test system: tRNA^Tyr precursor having on the 5′ end an additional sequence; assay: Confirmation of C5 protein and M1 RNA (RNase P) cleavage activity; assay type: biochemical; conditions: 150 pmol tRNA^Tyr precursor; 7M urea denatured polyacrylamide gel, methylene blue; FIG. 7
Experimental: In order to assay enzyme activity, 150 pmol of the tRNA^Tyr precursor having on the 5′ end an additional sequence was subjected to the reaction with 30 pmol of C5 proteins and […] of M1 RNA. The reaction buffer comprises 50 mM Tris-HCl (pH 7.4), 10 mM MgCl2, and 100 mM NH4Cl. The reaction solution was separated using a 7M urea-containing denatured polyacrylamide gel, and nucleic acid components were stained with methylene blue.

| Molecule | capacity of tRNA for accepting 14C-tryptophan (mt tRNA^Trp) | cleavage activity [1] |
| --- | --- | --- |
| mtWRS: yeast (Saccharomyces cerevisiae) mitochondrial tryptophanyl tRNA synthetase, SEQ ID NO: 2, His-tagged, expressed from pYC2WRS (protein, His tag) ISTVQRADFKLNSEALHSNATVFSMIQPTGCFHLGNYLGATRVWTDLCELKQPGQELIFGVADLHAITVPKPDGEMFRKFRHEAVASILAVGVDPEKASVIYQSAIPQHSELHWLLSTLASMGLLNRMTQWKSKSNIKQSTNGDYLVNDSDVGKVRLGLFSYPVLQAADILLYKSTHVPVGDDQSQHLELTRHLAEKFNKMYKKNFFPKPVTMLAQTKKVLSLSTPEKKMSKSDPNHDSVIFLNDEPKAIQKKIRKALTDSISDRFYYDPVERPGVSNLINIVSGIQRKSIEDVVEDVSRFNNYRDFKDYVSEVIIEELKGPRTEFEKYINEPTYLHSVVESGMRKAREKAAKNLADIHKIMGF | acceptance of tryptophan was observed |  |
| C5 protein: protein component of E. coli RNase P (rnpA gene), expressed from pETC5 (protein, UniProt P0A7Y8 1-119, looked up) Ribonuclease P protein …: MVKLAFPRELRLLTPSQFTFVFQQPQRAGTPQITILGRLNSLGHPRIGLTVAKKNVRRAHERNRIKRLTRESFRLRQHELPAMDFVVVAKKGVADLDNRALSEALEKLWRRHCRLARGS |  | Cleavage activity could not be confirmed |

Reference: patent US20090023139A1, “Method For Site-Specifically Introducing Non-Natural Amino Acid Into Protien Using Mitochondrial Protein and Method For Effectively Preparing Trna” (priority 2004, published 2009)
